This note sets out measurements from paper PMC12005765 (Advanced Science, 2025).

In general, Kd refers to a measure of binding affinity in units of concentration. For orientation: koff means the first-order rate constant of dissociation. A low value points to slow dissociation. The term kon denotes a measure of how fast the partners come together. Higher therefore signals faster complex formation.

Holding throughout (test): SPR; IgGs or Fc fusions captured on antihuman Fc polyclonal antibodies amine-coupled to a CM5 chip; spike trimer or CD3 epsilon-delta heterodimer injected; blank flow cell subtracted; 1:1 Langmuir model, simultaneous global fit of ka and kd, KD = kd/ka; BIAcore 2000 (methods) or BIAcore T100 (footnote of Table S3)
(In general: SPR reads the build-up and loss of mass on a sensor chip optically.)

In assay [1] the target is ectodomain of the S trimer from the prototypic SARS-CoV-2 Wuhan-Hu-1 strain (SARS-CoV-2 Wuhan-Hu-1) (UniProt P0DTC2).
In assay [2] the target is SA07, anti-S/CD3 bispecific antibody-like molecule from ACE2-Fc/UCHT1 (UniProt Q9BYF1).
Assay [3] concerns the target SS12, anti-S/CD3 bispecific CrossMab from S3H3/UCHT1.

Chain of SS12, anti-S/CD3 bispecific CrossMab from S3H3/UCHT1 (heavy, as listed by the source, chain 1 of 4): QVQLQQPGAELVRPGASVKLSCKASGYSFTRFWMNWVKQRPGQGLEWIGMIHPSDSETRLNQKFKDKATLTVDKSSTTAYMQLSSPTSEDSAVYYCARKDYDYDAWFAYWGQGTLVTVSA
Chain of SS12, anti-S/CD3 bispecific CrossMab from S3H3/UCHT1 (heavy, as listed by the source, chain 2 of 4): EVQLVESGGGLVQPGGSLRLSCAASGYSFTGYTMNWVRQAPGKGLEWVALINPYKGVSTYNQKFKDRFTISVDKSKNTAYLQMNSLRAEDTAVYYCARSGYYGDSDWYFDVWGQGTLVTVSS
Chain of SS12, anti-S/CD3 bispecific CrossMab from S3H3/UCHT1 (light, as listed by the source, chain 3 of 4): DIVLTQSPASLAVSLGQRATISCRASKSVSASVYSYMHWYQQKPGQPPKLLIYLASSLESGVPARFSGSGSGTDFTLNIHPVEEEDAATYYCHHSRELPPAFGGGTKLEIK
Chain of SS12, anti-S/CD3 bispecific CrossMab from S3H3/UCHT1 (light, as listed by the source, chain 4 of 4): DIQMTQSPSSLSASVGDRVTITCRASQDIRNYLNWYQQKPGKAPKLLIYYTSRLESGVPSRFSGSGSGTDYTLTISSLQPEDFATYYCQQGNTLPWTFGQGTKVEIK

In assay [1], “SC02, anti-S/CD3 bispecific CrossMab from CV3-25/UCHT1 (bispecific antibody)” registered a Kd of 4.82 nM, an off-rate (koff) of 0.00436 s⁻¹ and an on-rate constant (kon) of 904000 M⁻¹ s⁻¹.

On to “ectodomain of the S trimer from the prototypic SARS-CoV-2 Wuhan-Hu-1 strain (from UniProt P0DTC2 14-1213) (domain or fragment)”, for which the Kd was determined as 9.39 nM in assay [2] and 6.2 nM in assay [3].
